Biological target: T1, MUC16 membrane-proximal region (UniProt Q8WXI7 13810-14451)
T1 construct: domain: membrane-proximal region
T1 sequence: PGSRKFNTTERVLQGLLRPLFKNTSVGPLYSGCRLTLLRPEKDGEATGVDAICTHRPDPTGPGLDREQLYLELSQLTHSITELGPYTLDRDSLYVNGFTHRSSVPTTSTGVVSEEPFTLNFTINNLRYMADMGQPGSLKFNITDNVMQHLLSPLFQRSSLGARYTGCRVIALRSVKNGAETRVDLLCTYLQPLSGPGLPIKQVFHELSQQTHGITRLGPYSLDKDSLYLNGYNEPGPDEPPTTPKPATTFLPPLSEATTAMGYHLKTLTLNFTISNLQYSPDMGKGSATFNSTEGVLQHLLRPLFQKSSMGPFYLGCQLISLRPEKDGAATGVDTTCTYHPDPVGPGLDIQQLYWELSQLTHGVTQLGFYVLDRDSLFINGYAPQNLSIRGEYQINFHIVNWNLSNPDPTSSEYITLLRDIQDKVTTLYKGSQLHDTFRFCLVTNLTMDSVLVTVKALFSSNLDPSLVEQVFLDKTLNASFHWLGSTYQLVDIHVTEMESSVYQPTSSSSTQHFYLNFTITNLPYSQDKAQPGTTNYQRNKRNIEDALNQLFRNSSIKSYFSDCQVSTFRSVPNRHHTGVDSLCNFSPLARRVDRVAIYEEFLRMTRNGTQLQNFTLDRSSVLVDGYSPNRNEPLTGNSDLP
Test: FIG. 7A; method not named in the legend (Octet BLI or flow cytometry per the methods)

binding result: no binding
B1: 21G6 long linker mask on VH domain (antibody)
VH: NFTLDRSSVLVDGYSPNRNEPLTGNSDLPGGGGSSGGPGPAGMKGLPGSQVQLQESGPGLVKPSQTLSLTCTVSGYSITSDYAWNWIRQPPGKGLEWIGYISYSGSTIYNPSLKSRISISVDTSKNQFSLKLNSVTAADTAVYYCATLGLDYWGQGTLVTVSS
VL: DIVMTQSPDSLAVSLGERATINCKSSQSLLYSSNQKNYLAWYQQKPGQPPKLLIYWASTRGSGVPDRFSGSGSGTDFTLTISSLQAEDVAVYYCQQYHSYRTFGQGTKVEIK
notes: the methods give the format as IgG or scFv
